In doi:10.1101/474478 (bioRxiv, 2018):

Target: the molecule itself
Experiment: crystal structure

B1: mouse Nudt12 catalytic domain (residues 126-462), E219A/E220A/E221A triple mutant (domain or fragment, UniProt Q9DCN1 126-462, looked up)
chain: LDRRSDKRNNSDWLQAKESHPTTVYLLFSDLNPLVTLGGNKESSQQPEVRLCQLNYPDVKGYLAQPEKITLVFLGVELEMRKGSPAQAGGVPEAAADGLVAWFALGIEPGAAEEFKQRHENCYFLHPPMPALLQLKEKEAGVVAQARSVLAWHSRYKFCPTCGSATKIEEGGYKRVCVRETCPSLQGVHNTSYPRVDPVVIMQVIHPDGTKCLLGRQKRFPPGMFTCLAGFIEPGETIEDAVRREVEEESGVKVGHVQYVSCQPWPMPSSLMIGCLAVAVSTEIKVDKNEIEDARWFTREQVVDVLTKGKQQAFFVPPSRAIAHQLIKHWVGMNPNL
How did the “stoichiometry N” value turn out when B1 was run?
Its value is 2.
